Measurements taken from patent US20150086555A1.

Columns and labels:
Settings in all cases: remark: other sources report otherwise
[1] = target: recombinant soluble homotrimeric HA of A/Anhui/1/05 (H5N1) (Influenza A virus A/Anhui/1/2005(H5N1)); assay: HA microarray, BCC supernatant
[2] = target: recombinant soluble homotrimeric HA of A/California/4/09 (H1N1) (Influenza A virus A/California/04/2009(H1N1)); assay: HA microarray, BCC supernatant
[3] = target: recombinant soluble homotrimeric HA of A/Hong Kong/2108/03 (H9N2) (Influenza A virus A/HK/2108/2003(H9N2)); assay: HA microarray, BCC supernatant
[4] = target: recombinant soluble homotrimeric HA of A/Indonesia/5/05 (H5N1) (Influenza A virus A/Indonesia/5/2005(H5N1)); assay: HA microarray, BCC supernatant
[5] = target: recombinant soluble homotrimeric HA of A/Japan/305/57 (H2N2) (Influenza A virus A/Japan/305/1957(H2N2)); assay: HA microarray, BCC supernatant
[6] = target: recombinant soluble homotrimeric HA of A/Netherlands/219/03 (H7N7) (Influenza A virus A/Netherlands/219/03(H7N7)); assay: HA microarray, BCC supernatant
[7] = target: recombinant soluble homotrimeric HA of A/Solomon Islands/3/06 (H1N1) (Influenza A virus A/Solomon Islands/3/2006(H1N1)); assay: HA microarray, BCC supernatant
[8] = target: recombinant soluble homotrimeric HA of A/Vietnam/1203/04 (H5N1) (Influenza A virus A/VietNam/1203/2004(H5N1)); assay: HA microarray, BCC supernatant
[9] = target: recombinant soluble homotrimeric HA of A/Wisconsin/67/05 (H3N2) (Influenza A virus A/Wisconsin/67/2005(H3N2)); assay: HA microarray, BCC supernatant
[10] = target: recombinant soluble homotrimeric HA of A/chicken/Vietnam/NCVD-016/08 (H5N1) (Influenza A virus A/chicken/Vietnam/NCVD-016/2008(H5N1)); assay: HA microarray, BCC supernatant
[11] = target: recombinant soluble homotrimeric HA of A/duck/Yangzhou/02/05 (H8N4) (Influenza A virus A/duck/Yangzhou/02/2005(H8N4)); assay: HA microarray, BCC supernatant
[12] = target: recombinant soluble homotrimeric HA of A/northern shoveler/California/HKWF115/07 (H6) (Influenza A virus A/northern shoveler/California/HKWF115/2007(H6N1)); assay: HA microarray, BCC supernatant
[13] = target: recombinant soluble homotrimeric HA of A/swine/Ontario/01911-2/99 (H4N6) (Influenza A virus A/Swine/Ontario/01911-2/99 (H4N6)); assay: HA microarray, BCC supernatant
[14] = target: recombinant homotrimeric HA A/Anhui/1/05 H5N1 (Influenza A virus A/Anhui/1/2005(H5N1)); assay: protein microarray, purified IgG, trimeric HA
[15] = target: recombinant homotrimeric HA A/California/4/09 H1N1 (Influenza A virus A/California/04/2009(H1N1)); assay: protein microarray, purified IgG, trimeric HA
[16] = target: recombinant homotrimeric HA A/Egypt/3300-NAMRU3/08 H5N1 (Influenza A virus A/Egypt/3300-NAMRU3/2008(H5N1)); assay: protein microarray, purified IgG, trimeric HA
[17] = target: recombinant homotrimeric HA A/Hong Kong/1073/99 H9N2 (Influenza A virus A/Hong Kong/1073/99 (H9N2)); assay: protein microarray, purified IgG, trimeric HA
[18] = target: recombinant homotrimeric HA A/Hong Kong/156/97 H5N1 (Influenza A virus A/Hong Kong/156/97 (H5N1)); assay: protein microarray, purified IgG, trimeric HA
[19] = target: recombinant homotrimeric HA A/Hong Kong/2108/03 H9N2 (Influenza A virus A/HK/2108/2003(H9N2)); assay: protein microarray, purified IgG, trimeric HA
[20] = target: recombinant homotrimeric HA A/Indonesia/5/05 H5N1 (Influenza A virus A/Indonesia/5/2005(H5N1)); assay: protein microarray, purified IgG, trimeric HA
[21] = target: recombinant homotrimeric HA A/Japan/305/57 H2N2 (Influenza A virus A/Japan/305/1957(H2N2)); assay: protein microarray, purified IgG, trimeric HA
[22] = target: recombinant homotrimeric HA A/Netherlands/219/03 H7N7 (Influenza A virus A/Netherlands/219/03(H7N7)); assay: protein microarray, purified IgG, trimeric HA
[23] = target: recombinant homotrimeric HA A/Solomon Islands/3/06 H1N1 (Influenza A virus A/Solomon Islands/3/2006(H1N1)); assay: protein microarray, purified IgG, trimeric HA
[24] = target: recombinant homotrimeric HA A/South Carolina/1/18 H1N1 (Influenza A virus A/South Carolina/1/18 (H1N1)); assay: protein microarray, purified IgG, trimeric HA
[25] = target: recombinant homotrimeric HA A/Vietnam/1203/04 H5N1 (Influenza A virus A/VietNam/1203/2004(H5N1)); assay: protein microarray, purified IgG, trimeric HA
[26] = target: recombinant homotrimeric HA A/Wisconsin/67/05 H3N2 (Influenza A virus A/Wisconsin/67/2005(H3N2)); assay: protein microarray, purified IgG, trimeric HA
[27] = target: recombinant homotrimeric HA A/chicken/Vietnam/NCVD-016/08 H5N1 (Influenza A virus A/chicken/Vietnam/NCVD-016/2008(H5N1)); assay: protein microarray, purified IgG, trimeric HA
[28] = target: recombinant homotrimeric HA A/northern shoveler/California/HKWF115/07 H6N4 (Influenza A virus A/northern shoveler/California/HKWF115/2007(H6N1)); assay: protein microarray, purified IgG, trimeric HA

B1: TCN-557 (5081_A04) (antibody, V domains shown)
VH: QVQLVQSGAEVKKPGASVKVSCKASGHTFTGYYIHWVRQAPGQGLEWMGWINPDSGATSSAQNFQGRVTMTGDTSSSTAYMELSRLSFDDTAVYYCARVLFTSPFDFWGEGTLVTVSS
VL: QAVVTQEPSLAVSPGGTVTLTCGSSTGAVTRGHYPYWFQQKPGQAPRALIYDSAGNRHSWTPARFSGSLLGGKAALTLSGAQPEDEAEYYCLLSYSGVWVFGGGTKLTVL
Trimeric HA Binding: RLU [1]: 46000 RLU | Trimeric HA Binding: RLU [2]: 17600 RLU | Trimeric HA Binding: RLU [3]: 35300 RLU | Trimeric HA Binding: RLU [4]: 45200 RLU | Trimeric HA Binding: RLU [5]: 43400 RLU | Trimeric HA Binding: RLU [6]: 6780 RLU | Trimeric HA Binding: RLU [7]: 40700 RLU | Trimeric HA Binding: RLU [8]: 47300 RLU | Trimeric HA Binding: RLU [9]: 10200 RLU | Trimeric HA Binding: RLU [10]: 45500 RLU | Trimeric HA Binding: RLU [11]: 50100 RLU | Trimeric HA Binding: RLU [12]: 24400 RLU | Trimeric HA Binding: RLU [13]: 27000 RLU | Trimeric HA Binding: RLU [14]: 22000 RLU | Trimeric HA Binding: RLU [15]: 1170 RLU | Trimeric HA Binding: RLU [16]: 23600 RLU | Trimeric HA Binding: RLU [17]: 440 RLU | Trimeric HA Binding: RLU [18]: 22800 RLU | Trimeric HA Binding: RLU [19]: 7660 RLU | Trimeric HA Binding: RLU [20]: 23300 RLU | Trimeric HA Binding: RLU [21]: 28900 RLU | Trimeric HA Binding: RLU [22]: 7250 RLU | Trimeric HA Binding: RLU [23]: 22700 RLU | Trimeric HA Binding: RLU [24]: 3590 RLU | Trimeric HA Binding: RLU [25]: 25400 RLU | Trimeric HA Binding: RLU [26]: 327 RLU | Trimeric HA Binding: RLU [27]: 25400 RLU | Trimeric HA Binding: RLU [28]: 12600 RLU
